What was measured:
[1] = target: T1, HA-CCT2 (chaperonin subunit CCT2, wild type, N-terminal HA tag) (human, UniProt P78371 2-535); assay: co-IP of HA-CCT2 with T7-LC3C in HEK293T with knockdown of P62, NBR1 and TAX1BP1
T1 construct: Expressed in HEK293T or U2OS from pFUGW-HA-CCT2; CCT genes were amplified from HEK293T cDNA; also called WT CCT2; HA-CCT2 WT; not shown: N-terminal HA tag
T1 sequence: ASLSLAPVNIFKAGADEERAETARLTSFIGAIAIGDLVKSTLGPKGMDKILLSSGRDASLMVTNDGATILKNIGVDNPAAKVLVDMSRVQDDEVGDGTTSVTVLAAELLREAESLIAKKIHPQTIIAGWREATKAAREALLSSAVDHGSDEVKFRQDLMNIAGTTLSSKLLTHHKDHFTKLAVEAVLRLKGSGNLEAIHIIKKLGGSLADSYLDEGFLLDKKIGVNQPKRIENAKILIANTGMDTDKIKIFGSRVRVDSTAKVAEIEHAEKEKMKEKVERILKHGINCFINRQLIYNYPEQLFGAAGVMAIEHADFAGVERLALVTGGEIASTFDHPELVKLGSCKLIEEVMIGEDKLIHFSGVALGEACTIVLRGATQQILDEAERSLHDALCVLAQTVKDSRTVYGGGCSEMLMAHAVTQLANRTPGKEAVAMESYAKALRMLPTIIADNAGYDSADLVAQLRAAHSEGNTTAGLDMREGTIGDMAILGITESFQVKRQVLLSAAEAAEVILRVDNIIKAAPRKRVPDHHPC
Procedure: (§1) The data are representative of three independent experiments. [0146] […] The data are representative of three independent experiments. [0147] […] The data are representative of three independent experiments. [0148] […] The interaction of the peptides with T7-GABARAP or T7-GABARAPL1 proteins was analyzed by in vitro pull-down. The data are representative of three independent experiments. [0149] […] The data are representative of three independent experiments. [0150] […] [0151] (K) Quantification of Q103-HTT-GFP area/DAPI area (mean±SEM) as shown in [0152] (J). 48 h represents IB accumulation stage and 72 h represents clearance stage. P values are indicated (two-tailed t test, >20 views from three independent experiments). [0153] […] The data are representative of three independent experiments. [0154] […] The data are representative of three independent experiments. [0155] […] The data are representative of three independent experiments.
(§2) Co-immunoprecipitation was performed essentially as described before. In brief, 24 h after transfection, the cells were collected and lysed on ice for 30 min in co-IP buffer (50 mM Tris/HCl pH 7.4, 150 mM NaCl, 1 mM EDTA, 0.5% NP40) with protease inhibitor mixture, and the lysates were cleared by centrifugation. The resulting supernatants were incubated with indicated agarose or magnetic beads and rotated at 4° C. for 3 h. The agarose was washed five times with co-IP buffer.

[2] = target: T2, CCT2 D2-P7 fusion protein (Homo sapiens (Human), UniProt P78371 217-519); assay: co-IP
T2 construct: D2 domain of CCT2 fused to the P7 peptide of CCT2; also called HA-D2-P7; not shown: HA tag of plasmid pFUGW-HA-D2-P7
T2 sequence: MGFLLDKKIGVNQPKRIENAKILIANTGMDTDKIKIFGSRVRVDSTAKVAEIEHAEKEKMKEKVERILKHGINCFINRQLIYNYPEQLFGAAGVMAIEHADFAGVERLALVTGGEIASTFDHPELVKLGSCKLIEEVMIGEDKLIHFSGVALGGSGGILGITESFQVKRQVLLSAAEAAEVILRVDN
Procedure: as §2, with “buffer. As for the BFP-tagged Q103, the supernatants were incubated with rabbit anti-BFP antibodies and Protein A/G PLUS-Agarose according to the manufacturers' protocol. After washing, 2×SDS loading buffer was added to the beads, and immunoblot was performed as described previously.” for “buffer.”

[3] = target: T3, GFP-CCT2 D3 (aa369-535 of CCT2) (human, UniProt P78371 369-535); assay: co-IP of GFP-tagged CCT2 variants with T7-LC3C in HEK293T
T3 construct: also called C-terminal one-third of CCT2; not shown: GFP tag
T3 sequence: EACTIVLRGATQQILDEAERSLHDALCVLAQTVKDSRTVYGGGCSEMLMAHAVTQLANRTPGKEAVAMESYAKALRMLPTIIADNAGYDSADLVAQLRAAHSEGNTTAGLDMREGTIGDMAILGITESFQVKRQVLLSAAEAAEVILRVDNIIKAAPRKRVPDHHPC
From the text: The cells were permeabilized with digitonin before fixation. [0136] (G) Quantification of LC3 around Q103-HTT IB (mean±SEM) as shown in (F). […] [0137] […] The cells were permeabilized with digitonin before immunoblot analysis. LE, long exposure; SE, short exposure. [0138] (I) Quantification of normalized Q103-HTT (mean±SEM) in (H). […] [0139] […] The VLIR motif VIL is highlighted in red. [0140] […] The data are representative of three independent experiments. [0141] […] The cells were permeabilized with digitonin before fixation. [0142] (M) Quantification of LC3 around IBs (mean±SEM) as shown in (L). […] [0143] […] [0144] (O) Quantification of normalized Q103-HTT (mean±SEM) in (N).
as §2, with “buffer. As for the BFP-tagged Q103, the supernatants were incubated with rabbit anti-BFP antibodies and Protein A/G PLUS-Agarose according to the manufacturers' protocol. […]” for “buffer.”

HA-CCT6 = target: T4, HA-CCT6 (human, UniProt P40227 2-531); assay: co-IP with T7-LC3C in HEK293T
T4 construct: Amplified from HEK293T cDNA; not shown: N-terminal HA tag
Procedure: as §1, §2

Measured: binding result

T4 sequence (P40227 2-531 limits assumed): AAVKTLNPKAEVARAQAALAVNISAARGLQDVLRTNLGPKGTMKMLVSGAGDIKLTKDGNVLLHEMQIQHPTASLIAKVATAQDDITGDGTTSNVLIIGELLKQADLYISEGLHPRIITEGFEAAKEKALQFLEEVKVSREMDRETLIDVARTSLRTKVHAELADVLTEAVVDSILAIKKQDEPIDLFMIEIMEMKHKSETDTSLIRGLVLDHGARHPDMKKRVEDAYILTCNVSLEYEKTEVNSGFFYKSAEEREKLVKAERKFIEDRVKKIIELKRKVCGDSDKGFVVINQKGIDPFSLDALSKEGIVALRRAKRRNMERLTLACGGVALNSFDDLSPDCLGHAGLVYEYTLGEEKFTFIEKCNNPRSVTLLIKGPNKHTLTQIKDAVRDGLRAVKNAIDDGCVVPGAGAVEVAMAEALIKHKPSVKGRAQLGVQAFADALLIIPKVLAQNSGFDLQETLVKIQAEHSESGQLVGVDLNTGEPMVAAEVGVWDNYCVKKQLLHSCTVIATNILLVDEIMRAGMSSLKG

B1: T7-LC3C (expressed in cells) (other, UniProt Q9BXW4 1-126, looked up)
chain: MPPPQKIPSVRPFKQRKSLAIRQEEVAGIRAKFPNKIPVVVERYPRETFLPPLDKTKFLVPQELTMTQFLSIIRSRMVLRATEAFYLLVNNKSLVSMSATMAEIYRDYKDEDGFVYMTYASQETFG
notes: Expressed from pCDNA3-T7-LC3C; not shown: T7 tag
binds: [1] | [2] | [3] | HA-CCT6
